Measured values published in PMC5365143.

Target: EGFP-HDQ74 (mutant huntingtin exon 1 with 74 glutamine residues)
Assay: FRET or BRET

B1: AavLEA1-mCherry (natural protein)
chain: MSSQQNQNRQGEQQEQGYMEAAKEKVVNAWESTKETLSSTAQAAAEKTAEFRDSAGETIRDLTGQAQEKGQEFKERAGEKAEETKQRAGEKMDETKQRAGEMRENAGQKMEEYKQQGKGKAEELRDTAAEKLHQAGEKVKGRD
dFRET: 3%
